The record followed here is patent publication US20160257744A1 (Genentech, published 2016).

One test has as its target interleukin 13 (IL13) (UniProt P35225 35-146, limits assumed). The test is described as follows: ELISA: human IgG1 at 250 nM on protein-coated wells, anti-Fc-HRP.
The target in a further test is T1, HER2 ECD.
T1 construct: one of the irrelevant proteins; also called irrelevant protein coated on ELISA wells
Described as above.

The target of another test is T2, BSA (bovine, UniProt P02769).
T2 construct: negative control protein; also called irrelevant protein coated on ELISA wells
T2 sequence (P02769 25-607 limits assumed): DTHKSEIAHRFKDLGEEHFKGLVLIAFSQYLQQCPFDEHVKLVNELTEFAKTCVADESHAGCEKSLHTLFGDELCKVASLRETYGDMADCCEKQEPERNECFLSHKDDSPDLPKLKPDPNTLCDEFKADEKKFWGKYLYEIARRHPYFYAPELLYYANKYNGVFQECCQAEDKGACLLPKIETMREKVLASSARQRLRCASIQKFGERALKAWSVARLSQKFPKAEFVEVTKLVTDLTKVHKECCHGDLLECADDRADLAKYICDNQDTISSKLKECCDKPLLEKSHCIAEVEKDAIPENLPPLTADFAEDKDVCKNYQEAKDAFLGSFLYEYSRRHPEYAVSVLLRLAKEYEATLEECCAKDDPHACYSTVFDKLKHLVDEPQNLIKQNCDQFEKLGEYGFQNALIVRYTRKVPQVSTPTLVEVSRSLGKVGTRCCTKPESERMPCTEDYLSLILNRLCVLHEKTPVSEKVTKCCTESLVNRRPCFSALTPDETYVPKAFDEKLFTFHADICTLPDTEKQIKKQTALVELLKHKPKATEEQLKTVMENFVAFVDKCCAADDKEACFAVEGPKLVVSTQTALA
The description is as above.

Test [1] concerns the target T3, interleukin 5 (IL5) (human, UniProt P05113 20-134).
T3 construct: also called human IL5 (R&D Systems)
T3 sequence (looked up): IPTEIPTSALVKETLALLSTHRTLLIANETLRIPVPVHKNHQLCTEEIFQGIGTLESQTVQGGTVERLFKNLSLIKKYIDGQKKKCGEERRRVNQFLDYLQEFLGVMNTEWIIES
Description: SPR, Fab over immobilized IL5.

The next test has as its target T4, interleukin 4 (IL4) (UniProt P05112 25-153).
T4 sequence (looked up): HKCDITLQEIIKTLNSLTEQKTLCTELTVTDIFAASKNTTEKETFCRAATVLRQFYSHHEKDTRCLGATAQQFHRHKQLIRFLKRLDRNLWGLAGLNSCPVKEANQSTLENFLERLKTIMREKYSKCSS
Description: SPR (Biacore), Fab over CM5 chip with immobilized IL4, 25 °C.

Test [2] addresses T3, interleukin 5 (IL5). The test is described as follows: SPR (Biacore), Fab over CM5 chip with immobilized human IL5, 25 °C.
The target of test [3] is T3, interleukin 5 (IL5). The test is described as follows: phage competition ELISA (phage IC50), soluble IL5 against IL5-coated wells. The protocol:
Fab displaying phage was first incubated with serial dilutions of the respective antigens in solution for 2 h, unbound phage was then briefly captured by antigen coated ELISA wells and detected with anti-M13 HRP conjugate. The concentration of antigen inhibiting 50% of phage binding to antigen coated well is calculated as IC₅₀. NB denotes no detectable binding of phage clone directly to the antigens coated wells.
The relative affinity of each clone was assessed by phage IC₅₀ as above.

Chain of interleukin 13 (IL13) (P35225 35-146 limits assumed): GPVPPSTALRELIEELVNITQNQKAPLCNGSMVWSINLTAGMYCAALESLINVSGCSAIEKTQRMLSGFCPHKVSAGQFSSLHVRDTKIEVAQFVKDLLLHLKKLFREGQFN

B1: B1 as human IgG1 (antibody, V domains shown)
VH: EVQLVQSGAEVKKPGASVKVSCKASGYTFTDYLMHWVRQAPGQGLEWIAVIVSITGRTYYADDFKGRVTITRDTSTSTAYLELSSLRSEDTAVYYCARGGIFYGMDYWGQGTLVTVSS
VL: DIQMTQSPSSLSASVGDRVTITCKASQSVINDAAWYQQKPGKAPKLLIYYTSHRYTGVPSRFSGSGSGTDFTLTISSLQEDFATYYCQQDYTPFPLTFGQGTKVEIKR
notes: also called IL4/IL5 dual specific antibody B1
B1: the binding result with interleukin 13 (IL13), in the test with HER2 ECD and in the test with BSA was “no binding (tested: 250 nM)” each time.

B2: 1C36, affinity-matured variant of E7, purified as Fab (Fab, V domains shown)
VH: EVQLVQSGAEVKKPGASVKVSCKASGYTFTDYFIHWVRQAPGQGLEWIGGIVYDATGFTTYAEEFKGRVTITRDTSTSTAYLELSSLRSEDTAVYYCARGGIFYGMDYWGQGTLVTVSS
VL: DIQMTQSPSSLSASVGDRVTITCKASQSVINDAAWYQQKPGKAPKLLIYYTSHRYTGVPSRFSGSGSGTDFTLTISSLQEDFATYYCQQDYTHPWTFGQGTKVEIKR
notes: Purified Fab for SPR
As to B2, in the test with interleukin 5 (IL5) [1], binding was characterised by a dissociation constant (Kd) of 24.1 nM and the “fold improvement of affinity toward IL5 against E7” value was found to be 37 fold. In the test with interleukin 4 (IL4), this molecule came in with a Kd of 3.5 nM, a koff of 0.00197 s⁻¹ and a kon of 557000 M⁻¹ s⁻¹. In the test with interleukin 5 (IL5) [2], this molecule returned a dissociation rate constant (koff) of 0.000221 s⁻¹ and a kon of 9180 M⁻¹ s⁻¹.

B3: 2B.6 (Fab, V domains shown)
VH: EVQLVQSGAEVKKPGASVKVSCKASGYTFTDYFIHWVRQAPGQGLEWIAGIVYDATGFTTYADLFKGRVTITIDFSTSTAYLELSSLRSEDTAVYYCARGGIFYGMDYWGQGTLVTVSS
VL: DIQMTQSPSSLSASVGDRVTITCKASQSVINDAAWYQQKPGKAPKLLIYYTSHRYTGVPSRFSGSGSGTDFTLTISSLQEDFATYYCQQDYTSPWTFGQGTKVEIKR
On to B3, for which the concentration for half-maximal inhibition (IC50) with interleukin 5 (IL5) [3] is ~1000 nM.

B4: 2C.75 (Fab, V domains shown)
VH: EVQLVQSGAEVKKPGASVKVSCKASGYTFTDYFIHWVRQAPGQGLEWIAGIVYDATGFTTYADFFKGRVTITRDTSTSTVYLELSSLRSEDTAVYYCARGGIFYGMDYWGQGTLVTVSS
VL: DIQMTQSPSSLSASVGDRVTITCKASQSVINDAAWYQQKPGKAPKLLIYYTSHRYTGVPSRFSGSGSGTDFTLTISSLQEDFATYYCQQDYTSPWTFGQGTKVEIKR
Consider B4, for which, in the test with interleukin 5 (IL5) [3], the IC50 came to 0.6 nM.

B5: 2B.48 (Fab, V domains shown)
VH: EVQLVQSGAEVKKPGASVKVSCKASGYTFTDYFIHWVRQAPGQGLEWIAGIVYDATGFTTYADAFKGRVTITRDTSTSTVYLELSSLRSEDTAVYYCARGGIFYGMDYWGQGTLVTVSS
VL: DIQMTQSPSSLSASVGDRVTITCKASQSVINDAAWYQQKPGKAPKLLIYYTSHRYTGVPSRFSGSGSGTDFTLTISSLQEDFATYYCQQDYTSPWTFGQGTKVEIKR
On to B5, for which the IC50 with interleukin 5 (IL5) [3] was found to be 9.2 nM.

B6: 1C.3 (Fab, V domains shown)
VH: EVQLVQSGAEVKKPGASVKVSCKASGYTFTDYFIHWVRQAPGQGLEWIGGIVYDATGFTTYAVEFKGRVTITRDTSTSTAYLELSSLRSEDTAVYYCARGGIFYGMDYWGQGTLVTVSS
VL: DIQMTQSPSSLSASVGDRVTITCKASQSVINDAAWYQQKPGKAPKLLIYYTSHRYTGVPSRFSGSGSGTDFTLTISSLQEDFATYYCQQDYTHPWTFGQGTKVEIKR
Consider B6, for which, in the test with interleukin 5 (IL5) [3], the IC50 is ~1000 nM.

B7: 1C.27 (Fab, V domains shown)
VH: EVQLVQSGAEVKKPGASVKVSCKASGYTFTDYFIHWVRQAPGQGLEWIGGIVYDATGFTIYADDFKGRVTITRDTSTSTAYLELSSLRSEDTAVYYCARGGIFYGMDYWGQGTLVTVSS
VL: DIQMTQSPSSLSASVGDRVTITCKASQSVINDAAWYQQKPGKAPKLLIYYTSHRYTGVPSRFSGSGSGTDFTLTISSLQEDFATYYCQQDYTHPWTFGQGTKVEIKR
As to B7, in the test with interleukin 5 (IL5) [3], the concentration for half-maximal inhibition (IC50) turned out to be 18.2 nM.

B8: 2B.28 (Fab, V domains shown)
VH: EVQLVQSGAEVKKPGASVKVSCKASGYTFTDYFIHWVRQAPGQGLEWIAGIVYDATGFTTYADNFKGRVTITRDMSTSTVYLELSSLRSEDTAVYYCARGGIFYGMDYWGQGTLVTVSS
VL: DIQMTQSPSSLSASVGDRVTITCKASQSVINDAAWYQQKPGKAPKLLIYYTSHRYTGVPSRFSGSGSGTDFTLTISSLQEDFATYYCQQDYTSPWTFGQGTKVEIKR
Consider B8, for which the IC50 with interleukin 5 (IL5) [3] came out at 1.1 nM.

B9: 1C.42 (Fab, V domains shown)
VH: EVQLVQSGAEVKKPGASVKVSCKASGYTFTDYFIHWVRQAPGQGLEWIGGIVYDATGFTTYADSFKGRVTITRDTSTSTAYLELSSLRSEDTAVYYCARGGIFYGMDYWGQGTLVTVSS
VL: DIQMTQSPSSLSASVGDRVTITCKASQSVINDAAWYQQKPGKAPKLLIYYTSHRYTGVPSRFSGSGSGTDFTLTISSLQEDFATYYCQQDYTHPWTFGQGTKVEIKR
As to B9, the IC50 with interleukin 5 (IL5) [3] was determined as 8.5 nM.

B10: E7 as human IgG1 (antibody, V domains shown)
VH: EVQLVQSGAEVKKPGASVKVSCKASGYTFTDYFIHWVRQAPGQGLEWIAGIVYDATGFTTYADDFKGRVTITRDTSTSTAYLELSSLRSEDTAVYYCARGGIFYGMDYWGQGTLVTVSS
VL: DIQMTQSPSSLSASVGDRVTITCKASQSVINDAAWYQQKPGKAPKLLIYYTSHRYTGVPSRFSGSGSGTDFTLTISSLQEDFATYYCQQDYTSPWTFGQGTKVEIKR
notes: also called IL4/IL5 dual specific antibody E7
Take B10: the binding result with interleukin 13 (IL13), in the test with HER2 ECD and with BSA was “no binding (tested: 250 nM)” in each case.

B11: 1C.11 (Fab, V domains shown)
VH: EVQLVQSGAEVKKPGASVKVSCKASGYTFTDYFIHWVRQAPGQGLEWIGGIVYDATGFTIYAENFKGRVTITRDTSTSTAYLELSSLRSEDTAVYYCARGGIFYGMDYWGQGTLVTVSS
VL: DIQMTQSPSSLSASVGDRVTITCKASQSVINDAAWYQQKPGKAPKLLIYYTSHRYTGVPSRFSGSGSGTDFTLTISSLQEDFATYYCQQDYISPWTFGQGTKVEIKR
Regarding B11, in the test with interleukin 5 (IL5) [3], the half-inhibitory concentration (IC50) is ~1000 nM.

B12: 2B.35 (Fab, V domains shown)
VH: EVQLVQSGAEVKKPGASVKVSCKASGYTFTDYFIHWVRQAPGQGLEWIAGIVYDATGFTTYADTFKGRVTITRDPSTSTVYLELSSLRSEDTAVYYCARGGIFYGMDYWGQGTLVTVSS
VL: DIQMTQSPSSLSASVGDRVTITCKASQSVINDAAWYQQKPGKAPKLLIYYTSHRYTGVPSRFSGSGSGTDFTLTISSLQEDFATYYCQQDYTSPWTFGQGTKVEIKR
Consider B12, for which the 50% inhibitory concentration (IC50) in the test with interleukin 5 (IL5) [3] was 1.5 nM.

B13: 1C.93 (Fab, V domains shown)
VH: EVQLVQSGAEVKKPGASVKVSCKASGYTFTDYFIHWVRQAPGQGLEWIGGIVYDATGFTVYADDFKGRVTITRDTSTSTAYLELSSLRSEDTAVYYCARGGIFYGMDYWGQGTLVTVSS
VL: DIQMTQSPSSLSASVGDRVTITCKASQSVINDAAWYQQKPGKAPKLLIYYTSHRYTGVPSRFSGSGSGTDFTLTISSLQEDFATYYCQQDYTHPWTFGQGTKVEIKR
As for B13, in the test with interleukin 5 (IL5) [3], the 50% inhibitory concentration (IC50) was ~1000 nM.

B14: 2B.64 (Fab, V domains shown)
VH: EVQLVQSGAEVKKPGASVKVSCKASGYTFTDYFIHWVRQAPGQGLEWIAGIVYDATGFTTYADSFKGRFTITRDTSTSTVYLELSSLRSEDTAVYYCARGGIFYGMDYWGQGTLVTVSS
VL: DIQMTQSPSSLSASVGDRVTITCKASQSVINDAAWYQQKPGKAPKLLIYYTSHRYTGVPSRFSGSGSGTDFTLTISSLQEDFATYYCQQDYTSPWTFGQGTKVEIKR
Regarding B14, in the test with interleukin 5 (IL5) [3], the IC50 is ~1000 nM.

B15: 1C.91 (Fab, V domains shown)
VH: EVQLVQSGAEVKKPGASVKVSCKASGYTFTDYFIHWVRQAPGQGLEWIGGIVYDATGFTTYAEDFKGRVTITRDTSTSTAYLELSSLRSEDTAVYYCARGGIFYGMDYWGQGTLVTVSS
VL: DIQMTQSPSSLSASVGDRVTITCKASQSVINDAAWYQQKPGKAPKLLIYYTSHRYTGVPSRFSGSGSGTDFTLTISSLQEDFATYYCQQDYTSPWTFGQGTKVEIKR
As for B15, the IC50 in the test with interleukin 5 (IL5) [3] was ~1000 nM.

B16: 1C.24 (Fab, V domains shown)
VH: EVQLVQSGAEVKKPGASVKVSCKASGYTFTDYFIHWVRQAPGQGLEWIAGIVYDATGFTTYADSFKGRVTITRDTSTSTAYLELSSLRSEDTAVYYCARGGIFYGMDYWGQGTLVTVSS
VL: DIQMTQSPSSLSASVGDRVTITCKASQSVINDAAWYQQKPGKAPKLLIYYTSHRYTGVPSRFSGSGSGTDFTLTISSLQEDFATYYCQQDYLHPWTFGQGTKVEIKR
For the molecule B16, the IC50 with interleukin 5 (IL5) [3] is ~1000 nM.

B17: 1C.94 (Fab, V domains shown)
VH: EVQLVQSGAEVKKPGASVKVSCKASGYTFTDYFIHWVRQAPGQGLEWIGGIVYDATGFTAYADDFKGRVTITRDTSTSTAYLELSSLRSEDTAVYYCARGGIFYGMDYWGQGTLVTVSS
VL: DIQMTQSPSSLSASVGDRVTITCKASQSVINDAAWYQQKPGKAPKLLIYYTSHRYTGVPSRFSGSGSGTDFTLTISSLQEDFATYYCQQDYTSPWTFGQGTKVEIKR
For B17, the IC50 in the test with interleukin 5 (IL5) [3] was ~1000 nM.
